In IntAct's records for PubMed 17934474:

Molecular target: brr2_yeast BRR2 (UniProt P32639)
Sequence (P32639 whole entry): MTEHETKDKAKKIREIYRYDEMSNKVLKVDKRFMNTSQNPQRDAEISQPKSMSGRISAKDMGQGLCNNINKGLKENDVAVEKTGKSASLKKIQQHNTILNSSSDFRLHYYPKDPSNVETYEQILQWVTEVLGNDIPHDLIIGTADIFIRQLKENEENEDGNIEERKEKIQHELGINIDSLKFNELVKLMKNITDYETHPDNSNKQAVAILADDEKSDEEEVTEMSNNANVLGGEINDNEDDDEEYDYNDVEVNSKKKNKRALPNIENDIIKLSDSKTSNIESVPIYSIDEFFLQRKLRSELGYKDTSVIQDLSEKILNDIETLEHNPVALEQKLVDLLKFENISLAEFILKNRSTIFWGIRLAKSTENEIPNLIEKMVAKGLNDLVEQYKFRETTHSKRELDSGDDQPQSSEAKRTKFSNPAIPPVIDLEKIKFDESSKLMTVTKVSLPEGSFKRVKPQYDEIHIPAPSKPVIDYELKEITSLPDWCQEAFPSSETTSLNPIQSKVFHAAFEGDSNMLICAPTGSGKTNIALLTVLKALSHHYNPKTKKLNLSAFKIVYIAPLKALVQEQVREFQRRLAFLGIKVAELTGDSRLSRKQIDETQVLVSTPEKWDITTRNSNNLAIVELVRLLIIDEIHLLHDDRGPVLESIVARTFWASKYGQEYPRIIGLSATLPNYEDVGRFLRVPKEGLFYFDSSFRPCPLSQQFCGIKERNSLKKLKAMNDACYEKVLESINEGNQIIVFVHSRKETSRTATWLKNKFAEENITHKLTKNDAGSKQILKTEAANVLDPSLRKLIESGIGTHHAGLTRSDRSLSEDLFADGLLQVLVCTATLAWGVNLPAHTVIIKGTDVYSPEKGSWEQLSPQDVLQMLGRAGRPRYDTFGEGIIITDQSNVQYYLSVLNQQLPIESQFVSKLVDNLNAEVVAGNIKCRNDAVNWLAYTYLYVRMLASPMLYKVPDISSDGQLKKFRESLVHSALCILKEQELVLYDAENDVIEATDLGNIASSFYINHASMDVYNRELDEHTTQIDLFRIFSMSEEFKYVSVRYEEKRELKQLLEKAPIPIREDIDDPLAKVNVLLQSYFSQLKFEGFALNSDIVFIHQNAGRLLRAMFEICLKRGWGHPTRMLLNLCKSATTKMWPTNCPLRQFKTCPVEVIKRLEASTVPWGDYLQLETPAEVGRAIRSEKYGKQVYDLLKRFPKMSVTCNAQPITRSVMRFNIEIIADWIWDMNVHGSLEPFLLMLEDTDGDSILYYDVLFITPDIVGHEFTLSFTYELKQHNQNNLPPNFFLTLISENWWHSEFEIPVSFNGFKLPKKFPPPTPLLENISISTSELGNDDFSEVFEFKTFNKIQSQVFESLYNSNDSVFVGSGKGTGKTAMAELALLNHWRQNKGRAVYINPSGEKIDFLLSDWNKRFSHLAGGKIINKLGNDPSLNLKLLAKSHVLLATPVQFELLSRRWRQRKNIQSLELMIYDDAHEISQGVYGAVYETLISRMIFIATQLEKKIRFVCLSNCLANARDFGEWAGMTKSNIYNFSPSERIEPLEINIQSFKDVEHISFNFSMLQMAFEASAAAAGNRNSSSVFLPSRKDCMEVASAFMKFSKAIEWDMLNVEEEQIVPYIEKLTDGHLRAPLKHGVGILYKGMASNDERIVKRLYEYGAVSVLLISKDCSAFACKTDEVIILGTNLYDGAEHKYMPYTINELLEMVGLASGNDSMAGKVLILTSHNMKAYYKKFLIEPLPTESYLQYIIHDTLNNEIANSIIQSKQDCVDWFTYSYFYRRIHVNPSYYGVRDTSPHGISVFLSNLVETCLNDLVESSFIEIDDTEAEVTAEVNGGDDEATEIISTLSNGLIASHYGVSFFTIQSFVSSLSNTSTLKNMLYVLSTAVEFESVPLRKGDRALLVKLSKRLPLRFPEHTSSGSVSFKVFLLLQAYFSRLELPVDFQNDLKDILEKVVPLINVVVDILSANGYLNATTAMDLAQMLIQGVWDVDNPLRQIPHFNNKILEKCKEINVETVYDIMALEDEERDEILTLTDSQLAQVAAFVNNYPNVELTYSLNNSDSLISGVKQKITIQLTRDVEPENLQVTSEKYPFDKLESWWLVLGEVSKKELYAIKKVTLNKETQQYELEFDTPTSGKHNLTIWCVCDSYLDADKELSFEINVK

Sequence of Pre-mRNA-splicing factor 8 (Saccharomyces cerevisiae), P33334 P2379T (P33334 whole entry P2379T): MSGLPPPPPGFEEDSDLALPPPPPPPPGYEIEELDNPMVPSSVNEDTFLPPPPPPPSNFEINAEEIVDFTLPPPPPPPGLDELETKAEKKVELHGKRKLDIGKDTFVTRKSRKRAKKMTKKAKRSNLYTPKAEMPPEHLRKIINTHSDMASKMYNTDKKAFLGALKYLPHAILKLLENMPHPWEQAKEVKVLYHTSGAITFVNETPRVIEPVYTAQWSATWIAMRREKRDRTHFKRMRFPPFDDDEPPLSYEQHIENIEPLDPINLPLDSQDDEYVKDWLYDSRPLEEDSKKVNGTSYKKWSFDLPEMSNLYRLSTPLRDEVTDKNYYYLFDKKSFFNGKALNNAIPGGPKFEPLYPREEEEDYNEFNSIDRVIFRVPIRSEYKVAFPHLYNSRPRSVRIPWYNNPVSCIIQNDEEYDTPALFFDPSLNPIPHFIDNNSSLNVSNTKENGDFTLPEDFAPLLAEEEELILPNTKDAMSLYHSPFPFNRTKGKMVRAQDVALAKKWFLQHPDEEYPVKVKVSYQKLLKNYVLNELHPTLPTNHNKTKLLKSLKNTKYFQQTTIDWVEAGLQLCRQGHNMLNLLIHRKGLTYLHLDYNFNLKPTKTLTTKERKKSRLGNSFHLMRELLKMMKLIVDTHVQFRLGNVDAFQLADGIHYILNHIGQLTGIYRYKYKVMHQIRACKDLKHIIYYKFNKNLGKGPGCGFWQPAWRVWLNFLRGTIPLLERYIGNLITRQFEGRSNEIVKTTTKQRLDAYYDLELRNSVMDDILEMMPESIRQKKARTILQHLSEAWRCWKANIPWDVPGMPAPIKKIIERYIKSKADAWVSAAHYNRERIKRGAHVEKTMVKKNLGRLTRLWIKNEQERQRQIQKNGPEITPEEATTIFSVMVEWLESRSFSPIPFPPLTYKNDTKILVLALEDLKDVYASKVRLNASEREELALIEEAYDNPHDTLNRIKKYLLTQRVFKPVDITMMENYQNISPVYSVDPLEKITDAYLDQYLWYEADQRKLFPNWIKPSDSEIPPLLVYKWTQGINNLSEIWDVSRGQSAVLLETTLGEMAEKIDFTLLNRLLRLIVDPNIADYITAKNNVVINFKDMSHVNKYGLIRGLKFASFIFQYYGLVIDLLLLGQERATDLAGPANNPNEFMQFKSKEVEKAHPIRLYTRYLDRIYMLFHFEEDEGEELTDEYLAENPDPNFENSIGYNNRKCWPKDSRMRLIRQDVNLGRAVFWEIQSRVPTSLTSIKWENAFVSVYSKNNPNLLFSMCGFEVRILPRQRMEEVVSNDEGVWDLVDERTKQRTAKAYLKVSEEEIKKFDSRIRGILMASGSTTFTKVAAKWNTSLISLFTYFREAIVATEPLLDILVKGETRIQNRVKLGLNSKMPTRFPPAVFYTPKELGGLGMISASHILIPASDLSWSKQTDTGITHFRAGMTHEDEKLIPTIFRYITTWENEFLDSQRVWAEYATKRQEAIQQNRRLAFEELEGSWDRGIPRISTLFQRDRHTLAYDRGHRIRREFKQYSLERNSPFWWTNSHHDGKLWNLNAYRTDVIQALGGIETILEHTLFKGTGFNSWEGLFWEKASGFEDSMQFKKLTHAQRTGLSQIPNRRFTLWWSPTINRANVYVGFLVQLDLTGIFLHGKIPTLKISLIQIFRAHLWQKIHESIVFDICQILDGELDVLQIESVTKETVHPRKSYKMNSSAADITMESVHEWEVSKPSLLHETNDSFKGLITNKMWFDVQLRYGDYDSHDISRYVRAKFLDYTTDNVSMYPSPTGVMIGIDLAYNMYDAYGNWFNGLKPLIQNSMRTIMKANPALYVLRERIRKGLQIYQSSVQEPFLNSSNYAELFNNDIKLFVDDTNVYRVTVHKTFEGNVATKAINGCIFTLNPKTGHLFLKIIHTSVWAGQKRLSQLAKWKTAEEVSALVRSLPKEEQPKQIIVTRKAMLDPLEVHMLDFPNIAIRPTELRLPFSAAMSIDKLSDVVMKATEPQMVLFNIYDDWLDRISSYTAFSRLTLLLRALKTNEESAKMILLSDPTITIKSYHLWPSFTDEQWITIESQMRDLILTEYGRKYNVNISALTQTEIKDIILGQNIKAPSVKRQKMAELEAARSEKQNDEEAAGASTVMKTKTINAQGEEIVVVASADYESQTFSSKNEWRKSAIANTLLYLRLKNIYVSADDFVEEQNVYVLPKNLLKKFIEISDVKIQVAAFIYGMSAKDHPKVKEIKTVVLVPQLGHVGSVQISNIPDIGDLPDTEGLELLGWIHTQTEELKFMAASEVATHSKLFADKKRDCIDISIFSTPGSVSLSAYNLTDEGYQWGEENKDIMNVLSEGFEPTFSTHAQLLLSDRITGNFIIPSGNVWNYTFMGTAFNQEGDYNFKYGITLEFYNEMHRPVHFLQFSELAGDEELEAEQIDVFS

| effect of a mutation on the interaction | Substance |
| --- | --- |
| disrupting interaction | Pre-mRNA-splicing factor 8 (Saccharomyces cerevisiae), P33334 R2388K |
| decreasing interaction | Pre-mRNA-splicing factor 8 (Saccharomyces cerevisiae), P33334 F2382L |
| disrupting interaction | Pre-mRNA-splicing factor 8 (Saccharomyces cerevisiae), P33334 R2388G |
| disrupting interaction | Pre-mRNA-splicing factor 8 (Saccharomyces cerevisiae), P33334 H2387R |
| disrupting interaction | Pre-mRNA-splicing factor 8 (Saccharomyces cerevisiae), P33334 H2387P |
| decreasing interaction | Pre-mRNA-splicing factor 8 (Saccharomyces cerevisiae), P33334 P2379T |
| disrupting interaction | Pre-mRNA-splicing factor 8 (Saccharomyces cerevisiae), P33334 F2392L |
